Positions count from the first letter of the chain named.
B1: MAb #91 (antibody, V domains shown)
VH: EVQLQQSGPELVKPGASVKISCKASGYSFTDYFMNWVKQSHGKSLEWIGRINPYNGDSFYNQNFRGSVTLTVDKSSGTAHMELLSLTSEDSTVYYCGAYRYDGYAMDYWGQGTSVTVSS
VL: DVVMTQTPLSLPVSLGDQASISCRSSQSLVHSDGNTYLHWYLQKPGQSPKLLIYKVSNRFSGVPDRFSGSGSGTDFTLKISRVEAEDLGVYFCSQSTHVPFTFGSGTKLEIK
notes: Murine hybridoma antibody, supernatant; also called antibody 91
B2: MAb #25 (antibody, V domains shown)
VH: QVQLQQPGAELVRPGASVKLSCKASGYTFTNYWMHWVKQRPEQGLEWIGRIDPYDSETHYNQKFKDKAILTVDTSSNTAYMQLSSLTSEDSAVYYCTSYYYGSNYVWHFDVWGAGTTVTVSS
VL: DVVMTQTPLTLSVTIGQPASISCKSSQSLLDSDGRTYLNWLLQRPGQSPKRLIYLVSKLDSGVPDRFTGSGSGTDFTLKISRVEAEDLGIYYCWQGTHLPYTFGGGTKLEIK
notes: Murine hybridoma antibody, supernatant; also called antibody 25

Experiments:
Assay in all cases: ELISA, intact VLPs coated, hybridoma supernatant
[1] = target: T1, F401-VLPs of parvovirus B19 (parvovirus B19 genotype 1 (mutated), UniProt P07299 228-781)
T1 construct: also called F401-B19V; construct A
T1 chain: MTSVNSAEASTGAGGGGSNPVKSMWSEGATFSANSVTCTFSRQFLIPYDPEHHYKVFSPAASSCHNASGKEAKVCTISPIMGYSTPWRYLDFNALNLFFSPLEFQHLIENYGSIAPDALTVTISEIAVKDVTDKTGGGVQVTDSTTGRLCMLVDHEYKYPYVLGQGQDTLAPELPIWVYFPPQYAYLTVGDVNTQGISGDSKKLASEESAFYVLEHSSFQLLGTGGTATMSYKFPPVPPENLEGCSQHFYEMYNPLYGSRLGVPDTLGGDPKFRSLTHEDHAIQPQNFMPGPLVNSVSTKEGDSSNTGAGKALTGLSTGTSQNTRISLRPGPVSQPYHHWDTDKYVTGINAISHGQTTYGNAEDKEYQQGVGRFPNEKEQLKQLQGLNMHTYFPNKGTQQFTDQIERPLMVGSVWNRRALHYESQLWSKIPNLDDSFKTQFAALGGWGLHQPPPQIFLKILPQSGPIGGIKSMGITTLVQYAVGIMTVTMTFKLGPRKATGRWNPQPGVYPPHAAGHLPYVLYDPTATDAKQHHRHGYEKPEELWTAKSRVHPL

[2] = target: T2, wtVLPs of parvovirus B19 genotype 1 (VP2 only) (parvovirus B19 genotype 1, UniProt P07299 228-781)
T2 construct: Intact virus-like particles self-assembled from VP2 alone, made in Sf9 cells with baculovirus; also called B19V genotype 1; Prototype Q399QYTDQ404
T2 sequence: T1 chain with F401Y

HPV16 VLPs = target: T3, HPV16 VLPs (human papillomavirus type 16, UniProt P03101 1-505)
T3 construct: Specificity control; also called human papillomavirus VLPs
T3 sequence: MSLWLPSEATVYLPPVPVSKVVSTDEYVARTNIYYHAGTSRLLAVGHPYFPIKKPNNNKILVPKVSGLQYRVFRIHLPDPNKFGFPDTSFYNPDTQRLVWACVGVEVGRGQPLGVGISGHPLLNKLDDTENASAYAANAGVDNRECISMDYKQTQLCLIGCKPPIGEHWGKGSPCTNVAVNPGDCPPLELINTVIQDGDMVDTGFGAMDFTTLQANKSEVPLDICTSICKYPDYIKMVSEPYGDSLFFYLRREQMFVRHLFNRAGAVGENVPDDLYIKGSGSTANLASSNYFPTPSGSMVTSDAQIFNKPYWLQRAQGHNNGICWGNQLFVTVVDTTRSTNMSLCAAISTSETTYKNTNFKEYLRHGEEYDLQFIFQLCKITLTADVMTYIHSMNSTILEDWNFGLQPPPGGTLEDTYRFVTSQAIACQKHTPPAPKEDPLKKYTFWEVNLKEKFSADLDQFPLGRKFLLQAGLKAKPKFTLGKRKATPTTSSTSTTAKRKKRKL

[3] = target: T4, N399N400F401TDT404-VLPs of parvovirus B19 (parvovirus B19 genotype 1 (mutated), UniProt P07299 228-781)
T4 construct: also called NNF401TDT-B19V; NNF401TDT
T4 chain: T1 chain with Q399N, Q400N, Q404T

| Binder | ELISA absorbance (405 nm) [1] | ELISA absorbance (405 nm) [2] | ELISA absorbance (405 nm) (HPV16 VLPs) | ELISA absorbance (405 nm) [3] |
| --- | --- | --- | --- | --- |
| B1 | 3.01 | 3.72 | 0.005 | 3.86 |
| B2 | 3.82 | 2.86 | 0.009 | 3.26 |
